Assay results as given in patent publication US7063946B2, “Methods, reagents, kits and apparatus for protein function analysis” (Meso Scale Technologies, LLC., priority 2001, dated 2006).

B1: 4190326: IMAGE clone protein: Lyn, Yamaguchi sarcoma viral (vyes1) oncogene homolog (protein, UniProt P25911 2-512, looked up)
Tyrosine-protein kinase Lyn: GCIKSKRKDNLNDDEVDSKTQPVRNTDRTIYVRDPTSNKQQRPVPEFHLLPGQRFQTKDPEEQGDIVVALYPYDGIHPDDLSFKKGEKMKVLEEHGEWWKAKSLSSKREGFIPSNYVAKVNTLETEEWFFKDITRKDAERQLLAPGNSAGAFLIRESETLKGSFSLSVRDYDPMHGDVIKHYKIRSLDNGGYYISPRITFPCISDMIKHYQKQSDGLCRRLEKACISPKPQKPWDKDAWEIPRESIKLVKKLGAGQFGEVWMGYYNNSTKVAVKTLKPGTMSVQAFLEEANLMKTLQHDKLVRLYAVVTKEEPIYIITEFMAKGSLLDFLKSDEGGKVLLPKLIDFSAQIAEGMAYIERKNYIHRDLRAANVLVSESLMCKIADFGLARVIEDNEYTAREGAKFPIKWTAPEAINFGCFTIKSDVWSFGILLYEIVTYGKIPYPGRTNADVMSALSQGYRMPRMENCPDELYDIMKMCWKEKAEERPTFDYLQSVLDDFYTATEGQYQQQP
B2: 4238984: IMAGE clone protein: Kdr, kinase insert domain protein receptor (protein, UniProt P35918 20-1345, looked up)
Vascular endothelial growth …: ASVGLPGDFLHPPKLSTQKDILTILANTTLQITCRGQRDLDWLWPNAQRDSEERVLVTECGGGDSIFCKTLTIPRVVGNDTGAYKCSYRDVDIASTVYVYVRDYRSPFIASVSDQHGIVYITENKNKTVVIPCRGSISNLNVSLCARYPEKRFVPDGNRISWDSEIGFTLPSYMISYAGMVFCEAKINDETYQSIMYIVVVVGYRIYDVILSPPHEIELSAGEKLVLNCTARTELNVGLDFTWHSPPSKSHHKKIVNRDVKPFPGTVAKMFLSTLTIESVTKSDQGEYTCVASSGRMIKRNRTFVRVHTKPFIAFGSGMKSLVEATVGSQVRIPVKYLSYPAPDIKWYRNGRPIESNYTMIVGDELTIMEVTERDAGNYTVILTNPISMEKQSHMVSLVVNVPPQIGEKALISPMDSYQYGTMQTLTCTVYANPPLHHIQWYWQLEEACSYRPGQTSPYACKEWRHVEDFQGGNKIEVTKNQYALIEGKNKTVSTLVIQAANVSALYKCEAINKAGRGERVISFHVIRGPEITVQPAAQPTEQESVSLLCTADRNTFENLTWYKLGSQATSVHMGESLTPVCKNLDALWKLNGTMFSNSTNDILIVAFQNASLQDQGDYVCSAQDKKTKKRHCLVKQLIILERMAPMITGNLENQTTTIGETIEVTCPASGNPTPHITWFKDNETLVEDSGIVLRDGNRNLTIRRVRKEDGGLYTCQACNVLGCARAETLFIIEGAQEKTNLEVIILVGTAVIAMFFWLLLVIVLRTVKRANEGELKTGYLSIVMDPDELPLDERCERLPYDASKWEFPRDRLKLGKPLGRGAFGQVIEADAFGIDKTATCKTVAVKMLKEGATHSEHRALMSELKILIHIGHHLNVVNLLGACTKPGGPLMVIVEFCKFGNLSTYLRGKRNEFVPYKSKGARFRQGKDYVGELSVDLKRRLDSITSSQSSASSGFVEEKSLSDVEEEEASEELYKDFLTLEHLICYSFQVAKGMEFLASRKCIHRDLAARNILLSEKNVVKICDFGLARDIYKDPDYVRKGDARLPLKWMAPETIFDRVYTIQSDVWSFGVLLWEIFSLGASPYPGVKIDEEFCRRLKEGTRMRAPDYTTPEMYQTMLDCWHEDPNQRPSFSELVEHLGNLLQANAQQDGKDYIVLPMSETLSMEEDSGLSLPTSPVSCMEEEEVCDPKFHYDNTAGISHYLQNSKRKSRPVSVKTFEDIPLEEPEVKVIPDDSQTDSGMVLASEELKTLEDRNKLSPSFGGMMPSKSRESVASEGSNQTSGYQSGYHSDDTDTTVYSSDEAGLLKMVDAAVHADSGTTLRSPPV
B3: 4239139: IMAGE clone protein: Fgfr4, fibroblast growth factor receptor 4 (protein, UniProt Q03142 17-799, looked up)
Fibroblast growth factor …: LSLEASEEMEQEPCLAPILEQQEQVLTVALGQPVRLCCGRTERGRHWYKEGSRLASAGRVRGWRGRLEIASFLPEDAGRYLCLARGSMTVVHNLTLLMDDSLTSISNDEDPKTLSSSSSGHVYPQQAPYWTHPQRMEKKLHAVPAGNTVKFRCPAAGNPMPTIHWLKDGQAFHGENRIGGIRLRHQHWSLVMESVVPSDRGTYTCLVENSLGSIRYSYLLDVLERSPHRPILQAGLPANTTAVVGSDVELLCKVYSDAQPHIQWLKHVVINGSSFGADGFPYVQVLKTTDINSSEVEVLYLRNVSAEDAGEYTCLAGNSIGLSYQSAWLTVLPEEDLTWTTATPEARYTDIILYVSGSLVLLVLLLLAGVYHRQVIRGHYSRQPVTIQKLSRFPLARQFSLESRSSGKSSLSLVRGVRLSSSGPPLLTGLVNLDLPLDPLWEFPRDRLVLGKPLGEGCFGQVVRAEAFGMDPSRPDQTSTVAVKMLKDNASDKDLADLVSEMEVMKLIGRHKNIINLLGVCTQEGPLYVIVECAAKGNLREFLRARRPPGPDLSPDGPRSSEGPLSFPALVSCAYQVARGMQYLESRKCIHRDLAARNVLVTEDDVMKIADFGLARGVHHIDYYKKTSNGRLPVKWMAPEALFDRVYTHQSDVWSFEILLWEIFTLGGSPYPGIPVEELFSLLREGHRMERPPNCPSELYGLMRECWHAAPSQRPTFKQLVEALDKVLLAVSEEYLDLRLTFGPFSPSNGDASSTCSSSDSVFSHDPLPLEPSPFPFSDSQTT
B4: 4013934: IMAGE clone protein: Ephb4, Eph receptor B4 (protein, UniProt P54761 16-987, looked up)
Ephrin type-B receptor 4: LEETLLNTKLETADLKWVTYPQAEGQWEELSGLDEEQHSVRTYEVCDMKRPGGQAHWLRTGWVPRRGAVHVYATIRFTMMECLSLPRASRSCKETFTVFYYESEADTATAHTPAWMENPYIKVDTVAAEHLTRKRPGAEATGKVNIKTLRLGPLSKAGFYLAFQDQGACMALLSLHLFYKKCSWLITNLTYFPETVPRELVVPVAGSCVANAVPTANPSPSLYCREDGQWAEQQVTGCSCAPGYEAAESNKVCRACGQGTFKPQIGDESCLPCPANSHSNNIGSPVCLCRIGYYRARSDPRSSPCTTPPSAPRSVVHHLNGSTLRLEWSAPLESGGREDLTYAVRCRECRPGGSCLPCGGDMTFDPGPRDLVEPWVAIRGLRPDVTYTFEVAALNGVSTLATGPPPFEPVNVTTDREVPPAVSDIRVTRSSPSSLILSWAIPRAPSGAVLDYEVKYHEKGAEGPSSVRFLKTSENRAELRGLKRGASYLVQVRARSEAGYGPFGQEHHSQTQLDESESWREQLALIAGTAVVGVVLVLVVVIIAVLCLRKQSNGREVEYSDKHGQYLIGHGTKVYIDPFTYEDPNEAVREFAKEIDVSYVKIEEVIGAGEFGEVCRGRLKAPGKKESCVAIKTLKGGYTERQRREFLSEASIMGQFEHPNIIRLEGVVTNSVPVMILTEFMENGALDSFLRLNDGQFTVIQLVGMLRGIASGMRYLAEMSYVHRDLAARNILVNSNLVCKVSDFGLSRFLEENSSDPTYTSSLGGKIPIRWTAPEAIAFRKFTSASDAWSYGIVMWEVMSFGERPYWDMSNQDVINAIEQDYRLPPPPDCPTSLHQLMLDCWQKDRNARPRFPQVVSALDKMIRNPASLKIVARENGGASHPLLDQRQPHYSAFGSVGEWLRAIKMGRYEESFAAAGFGSFEVVSQISAEDLLRIGVTLAGHQKKILASVQHMKSQAKPGAPGGTGGPAQQF

Test system: pEY
Experiment: In vitro kinase library screen: activity towards pEY
Assay type: biochemical
Settings: 5 ul of expressed protein
Experimental: Proteins were produced in an in vitro transcription and translation reaction. […] The unbound components of the reaction containing endogenous kinases were removed by three washes with TT-buffer (25 mM Tris-HCl buffer pH 7.4 and 0.004% Triton), two five minutes washings with high-salt wash buffer (25 mM Tris-HCl buffer pH 7.4, 0.004% Triton, 1M NaCl and 5 mM DTT) and 3 more washes with TT-buffer. To these immobilized and purified proteins a tyrosine kinase substrate, 5 nM pEY (poly Glu-Tyr, Sigma, MO), was added in a 50 μl reaction solution containing 5 mM MgCl2, 5 mM MnCl2, 100 μM ATP, 25 mM Tris-HCl buffer pH 7.4, 0.05 mM Na3VO4, 0.004% TritonX-100, 2 mM DTT and EDTA-free protease inhibitor (Roche Molecular Biochemicals). This mixture was incubated with shaking at room temperature overnight to allow phosphorylation of the pEY substrate by the immobilized kinases. Following this incubation, 45 μl of this mixture was transferred to a streptavidin or avidin-coated NPT IPR plate coated with biotinylated anti-phosphotyrosine antibody (PY20, Zymed labs, CA) followed by incubation for 30 minutes at room temperature to allow the binding of the phosphorylated pEY substrate to the PY20 coated NPT plate. Following this binding step, 50 ng Sulfo-TAG labeled anti-phosphotyrosine in buffer containing 25 mM Tris-HCl buffer pH 7.4, 5 mM MgCl2, 0.05 mM Na3VO4, 0.004% TritonX-100, 2 mM DTT and 0.05% IgG was added followed by incubation at room temperature for 30 mm. The unbound reagents were removed by one time washing with water, and the TAG label was detected in presence of 150 μl IPR assay buffer (0.4 mM Gly-Gly buffer, pH 7.8, 1 mM EDTA, 0.1 M TPA). The ECL signals were measured using an imaging plate reader.
(§1) Proteins were produced in an in vitro transcription and translation reaction as described in the Materials and Methods. […] The reaction was stopped by mixing with BB2 buffer. Biotinylated proteins from 50 μl of the mixture (representing 0.5 μl to 5 μl of TnT reaction) were immobilized onto streptavidin or avidin coated NPT-IPR plates by shaking at room temperature for 45 min. The activity of the immobilized protein towards pEY or autophosphorylation was further assayed by the methods described in examples 7 and 8.

Row | Molecule | HTS signal
1 | B1 | 427,178
2 | B2 | 107,459
3 | B3 | 7,343
4 | B4 | 7,357

Test system: autophosphorylation (phosphotyrosine)
Experiment: In vitro kinase library screen: autophosphorylation
Assay type: biochemical
Settings: not given
Experimental: Proteins were produced from DNA plasmids of Mock Luciferase, Promega, tyrosine kinase clone Spleen Tyrosine kinase (SYK, IMAGE ID# 3870426) and Eph receptor-A7 (EphA7, IMAGE ID# 3991628) (Incyte Genomics, CA) and immobilized on streptavidin or avidin coated NPT-IPR plates as described in the Example 7. To promote autophosphorylation in these immobilized and purified proteins, Mn++ ions were added in a 50 μl reaction containing 5 mM MgCl2, 5 mM MnCl2, 100 μM ATP, 25 mM Tris-HCl buffer pH 7.4, 0.05 mM Na3VO4, 0.004% TritonX-100, 2 mM DTT and EDTA-free protease inhibitor (Roche Molecular Biochemicals). This mixture was incubated with shaking at room temperature overnight to allow autophosphorylation. Following this incubation, wells were washed 2 times with TT-buffer and 2 times with water. Following this step, 50 ng Sulfo-TAG labeled anti-phosphotyrosine in buffer containing 25 mM Tris-HCl buffer pH 7.4, 5 mM MgCl2, 0.05 mM Na3VO4, 0.004% TritonX-100, 2 mM DTT and 0.05% IgG in a final volume of 50 μl was added followed by incubation at room temperature for 45 min. The unbound reagents were removed by one time washing with water, and the TAG label was detected in presence of 150 μl IPR assay buffer (0.4 mM Gly—Gly buffer, pH 7.8, 1 mM EDTA, 0.1 M TPA). The ECL signals were measured using an imaging plate reader.
as §1

Row | Molecule | ECL signal
5 | B1 | 599,680
6 | B2 | 61,364
7 | B3 | 12,588
8 | B4 | 28,275
